Results published in patent JP2012100585A (dated 2012).

Legend:
[1] = molecular target: T1, 組換えヒトLOX−1タンパク質(61−273aa) (human, UniProt P78380 61-273); assay: ELISA on LOX-1 (61-273), anti-V5 detection; 4-parameter logistic fit
[2] = molecular target: T2, BSA (UniProt P02769 25-607); assay: ELISA, BSA on the plate, anti-V5 detection
T2 construct: Negative control antigen; also called BSA(陰性対照、シグマ社)

[3] = molecular target: T2, BSA; assay: ELISA, BSA on the plate
[4] = molecular target: T1, 組換えヒトLOX−1タンパク質(61−273aa); assay: ELISA, LOX-1 (61-273) on the plate, HRP anti-mouse IgG detection

T2 sequence (P02769 25-607 limits assumed): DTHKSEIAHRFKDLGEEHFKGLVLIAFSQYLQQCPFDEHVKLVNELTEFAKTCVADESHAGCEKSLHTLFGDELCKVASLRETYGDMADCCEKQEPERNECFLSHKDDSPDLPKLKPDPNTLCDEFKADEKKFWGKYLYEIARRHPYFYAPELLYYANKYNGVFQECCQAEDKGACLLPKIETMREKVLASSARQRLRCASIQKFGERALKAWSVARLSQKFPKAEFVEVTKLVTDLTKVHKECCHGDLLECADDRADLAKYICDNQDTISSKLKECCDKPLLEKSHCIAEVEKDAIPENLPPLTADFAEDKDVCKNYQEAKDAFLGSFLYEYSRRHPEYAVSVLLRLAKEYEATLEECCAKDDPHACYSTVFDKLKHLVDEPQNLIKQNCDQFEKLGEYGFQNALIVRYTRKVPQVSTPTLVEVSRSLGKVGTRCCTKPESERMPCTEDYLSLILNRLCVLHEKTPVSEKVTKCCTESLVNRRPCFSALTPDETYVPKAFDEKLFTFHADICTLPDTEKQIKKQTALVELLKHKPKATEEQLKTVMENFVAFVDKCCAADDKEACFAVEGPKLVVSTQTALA

| Binder | fold higher inflection-point concentration against Fv型抗体 [1] | binding result [2] | binding result [3] | binding result [4] |
| --- | --- | --- | --- | --- |
| Fv型抗LOX−1抗体−ApoB断片融合タンパク質 Fv−B2 (other, Fusion of scFv (C-terminus) to ApoB fragment (N-terminus) through a linker; FreeStyle 293, His-tag purified; not shown: C-terminal V5 and 6xHis tag from the pEF6/V5/His vector) EVKLLESGGGLVQPGGSLKLSCAVSGFDFSRYWMSWVRQAPGKGLEWIGEINPDSSTINFTPSLKDKFIVSRDNAKNTLYLQMSKVRSEDTALYYCARNDVLLGAMDYWGQGTSVTVSSGGGGSGGGGSGGGGSDVLMTQTPLSLPVSLGDQASISCRSSQTIVHSNGKTYLEWYLQKPGQSPKLLIYKVSNRFSGVPDRFSGSGSGTDFTLKISRVEAEDLGVYYCFQGSHVPLTFGAGTKLELKREIFNMARDQRSRATLYALSHAVNNYHKTNPTGTQELLDIANYLMEQIQDDCTGDEDYTYLILRVIGNMGQTMEQLTPELKSSILKCVQSTKPSLMIQKAAIQALRKMEPKDKDQEVLLQTFLDDASPGDKRLAAYLMLMRSPSQADINKIVQILPWEQNEQVKNFVASH | ~27 倍 | no binding (tested: 1.6ng/mL〜100μg/mL) | – | – |
| Fv型抗LOX−1抗体−ApoB断片融合タンパク質 Fv−B4 (other, Fusion of scFv (C-terminus) to ApoB fragment (N-terminus) through a linker; FreeStyle 293, His-tag purified; not shown: C-terminal V5 and 6xHis tag from the pEF6/V5/His vector) EVKLLESGGGLVQPGGSLKLSCAVSGFDFSRYWMSWVRQAPGKGLEWIGEINPDSSTINFTPSLKDKFIVSRDNAKNTLYLQMSKVRSEDTALYYCARNDVLLGAMDYWGQGTSVTVSSGGGGSGGGGSGGGGSDVLMTQTPLSLPVSLGDQASISCRSSQTIVHSNGKTYLEWYLQKPGQSPKLLIYKVSNRFSGVPDRFSGSGSGTDFTLKISRVEAEDLGVYYCFQGSHVPLTFGAGTKLELKGPQMSASVHLDSKKKQHLFVKEVKIDGQFRVSSFYAKGTYGLSCQRDPNTGRLNGESNLRFNSSYLQGTNQITGRYEDGTLSLTSTSDLQS | ~7 倍 | no binding (tested: 1.6ng/mL〜100μg/mL) | – | – |
| Fv型抗LOX−1抗体−ApoB断片融合タンパク質 Fv−B1 (other, Fusion of scFv (C-terminus) to ApoB fragment (N-terminus) through a linker; FreeStyle 293, His-tag purified; not shown: C-terminal V5 and 6xHis tag from the pEF6/V5/His vector) EVKLLESGGGLVQPGGSLKLSCAVSGFDFSRYWMSWVRQAPGKGLEWIGEINPDSSTINFTPSLKDKFIVSRDNAKNTLYLQMSKVRSEDTALYYCARNDVLLGAMDYWGQGTSVTVSSGGGGSGGGGSGGGGSDVLMTQTPLSLPVSLGDQASISCRSSQTIVHSNGKTYLEWYLQKPGQSPKLLIYKVSNRFSGVPDRFSGSGSGTDFTLKISRVEAEDLGVYYCFQGSHVPLTFGAGTKLELKEEEMLENVSLVCPKDATRFKHLRKYTYNYEAESSSGVPGTADSRSATRINCKVELEVPQLCSFILKTSQCTLKEVYGFNPEGKALLKKTKNSEEFAAAMSRYELKLAIPEGKQVFLYPEKDEPTYILNIKRGIISALLVPPETEEAKQVLFLDTVYGNCSTHFTVKTRKGNVATEISTERDLGQCDRFKP | – | no binding (tested: 1.6ng/mL〜100μg/mL) | – | – |
| Fv型抗LOX−1抗体−ApoB断片融合タンパク質 Fv−B3 (other, Fusion of scFv (C-terminus) to ApoB fragment (N-terminus) through a linker; FreeStyle 293, His-tag purified; not shown: C-terminal V5 and 6xHis tag from the pEF6/V5/His vector) EVKLLESGGGLVQPGGSLKLSCAVSGFDFSRYWMSWVRQAPGKGLEWIGEINPDSSTINFTPSLKDKFIVSRDNAKNTLYLQMSKVRSEDTALYYCARNDVLLGAMDYWGQGTSVTVSSGGGGSGGGGSGGGGSDVLMTQTPLSLPVSLGDQASISCRSSQTIVHSNGKTYLEWYLQKPGQSPKLLIYKVSNRFSGVPDRFSGSGSGTDFTLKISRVEAEDLGVYYCFQGSHVPLTFGAGTKLELKTSGAYSNASSTDSASYYPLTGDTRLELELRPTGEIEQYSVSATYELQREDRALVDTLKFVTQAEGAKQTEATMTFKYNRQSMTLSSE | – | no binding (tested: 1.6ng/mL〜100μg/mL) | – | – |
| Fv型抗LOX−1抗体 (scFv, VH gene was amplified with the #10-1 heavy chain secretion signal; Expressed in FreeStyle 293, purified by His tag; also called Fv型抗体; Fv; not shown: C-terminal V5 and 6xHis tag from the pEF6/V5/His vector) scFv: EVKLLESGGGLVQPGGSLKLSCAVSGFDFSRYWMSWVRQAPGKGLEWIGEINPDSSTINFTPSLKDKFIVSRDNAKNTLYLQMSKVRSEDTALYYCARNDVLLGAMDYWGQGTSVTVSSGGGGSGGGGSGGGGSDVLMTQTPLSLPVSLGDQASISCRSSQTIVHSNGKTYLEWYLQKPGQSPKLLIYKVSNRFSGVPDRFSGSGSGTDFTLKISRVEAEDLGVYYCFQGSHVPLTFGAGTKLELK | – | no binding (tested: 抗体濃度2ng/mL〜100μg/mL) | – | – |
| マウス抗LOX−1モノクローナル抗体#10−1 (antibody, V domains shown, also called 抗LOX−1抗体#10−1; マウス抗LOX−1抗体#10−1のIgG型) VH: EVKLLESGGGLVQPGGSLKLSCAVSGFDFSRYWMSWVRQAPGKGLEWIGEINPDSSTINFTPSLKDKFIVSRDNAKNTLYLQMSKVRSEDTALYYCARNDVLLGAMDYWGQGTSVTVSS VL: DVLMTQTPLSLPVSLGDQASISCRSSQTIVHSNGKTYLEWYLQKPGQSPKLLIYKVSNRFSGVPDRFSGSGSGTDFTLKISRVEAEDLGVYYCFQGSHVPLTFGAGTKLELK | – | – | no binding (tested: 抗体濃度2ng/mL〜100μg/mL) | binds |
